Patent US20200231684A1 (published 2020)
Where two headings read alike, the source gives them in different places.

T1: human IL-36R on cells (human, UniProt Q9HB29 20-575)
T1 sequence (looked up): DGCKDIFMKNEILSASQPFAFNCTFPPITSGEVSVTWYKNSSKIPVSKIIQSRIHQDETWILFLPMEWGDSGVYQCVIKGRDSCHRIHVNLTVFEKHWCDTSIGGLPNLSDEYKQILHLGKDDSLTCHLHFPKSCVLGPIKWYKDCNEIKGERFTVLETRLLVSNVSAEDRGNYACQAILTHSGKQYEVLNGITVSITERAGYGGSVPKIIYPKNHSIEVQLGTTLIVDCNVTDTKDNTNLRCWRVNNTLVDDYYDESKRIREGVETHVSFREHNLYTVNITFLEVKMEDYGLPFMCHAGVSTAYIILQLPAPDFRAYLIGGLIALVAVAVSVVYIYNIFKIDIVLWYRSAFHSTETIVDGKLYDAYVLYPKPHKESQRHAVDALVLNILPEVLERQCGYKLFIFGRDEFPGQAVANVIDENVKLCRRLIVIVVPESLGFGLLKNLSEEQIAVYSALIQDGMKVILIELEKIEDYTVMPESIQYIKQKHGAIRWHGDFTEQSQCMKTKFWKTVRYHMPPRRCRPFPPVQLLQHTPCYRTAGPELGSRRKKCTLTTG

T2: human IL-1R1 (human, UniProt P14778 18-336, limits assumed)
T2 construct: also called IL-1RI
T2 sequence (looked up): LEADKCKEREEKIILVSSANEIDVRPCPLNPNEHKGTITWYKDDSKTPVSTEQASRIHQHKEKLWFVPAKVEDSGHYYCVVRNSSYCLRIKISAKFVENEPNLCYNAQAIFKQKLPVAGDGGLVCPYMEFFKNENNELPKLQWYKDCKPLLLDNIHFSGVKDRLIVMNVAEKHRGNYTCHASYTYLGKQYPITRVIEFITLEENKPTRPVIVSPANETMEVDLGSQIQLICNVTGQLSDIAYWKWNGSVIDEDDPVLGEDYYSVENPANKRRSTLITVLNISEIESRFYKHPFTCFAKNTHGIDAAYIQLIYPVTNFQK

T3: mouse IL-36R (mouse, UniProt Q9ERS7 22-338)
T3 sequence (looked up): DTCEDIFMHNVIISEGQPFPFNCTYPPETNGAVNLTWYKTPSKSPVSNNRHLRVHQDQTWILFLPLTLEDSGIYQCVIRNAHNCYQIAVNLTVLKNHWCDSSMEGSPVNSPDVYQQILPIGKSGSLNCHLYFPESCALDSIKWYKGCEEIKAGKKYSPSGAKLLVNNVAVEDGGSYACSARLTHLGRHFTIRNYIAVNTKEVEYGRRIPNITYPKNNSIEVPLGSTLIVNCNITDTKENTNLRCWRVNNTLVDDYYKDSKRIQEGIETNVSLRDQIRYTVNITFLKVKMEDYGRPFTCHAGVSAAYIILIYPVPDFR

T4: recombinant human IL-36R (ECD) (human, UniProt Q9HB29 20-332)
T4 construct: range 20-332; also called IL-1RL2; IL-1Rrp2
T4 sequence (looked up): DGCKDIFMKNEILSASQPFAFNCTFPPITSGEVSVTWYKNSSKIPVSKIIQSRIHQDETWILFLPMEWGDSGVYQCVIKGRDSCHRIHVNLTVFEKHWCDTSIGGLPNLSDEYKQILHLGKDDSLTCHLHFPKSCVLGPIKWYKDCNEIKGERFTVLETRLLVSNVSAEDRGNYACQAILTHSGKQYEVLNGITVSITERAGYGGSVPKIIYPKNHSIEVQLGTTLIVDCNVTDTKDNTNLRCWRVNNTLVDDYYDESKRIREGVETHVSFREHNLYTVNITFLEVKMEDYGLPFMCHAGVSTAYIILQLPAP


Columns and labels:
human IL-36R on cells [1] = target: T1, human IL-36R on cells; test: cell-based or functional assay
[2] = target: cynomolgus IL-36R on BaF/3 cells (cynomolgus, UniProt A0A2K5WSK9 20-558); test: cell-based or functional assay
human IL-1R1 = target: T2, human IL-1R1; test: BLI (Fortebio Octet), antibody injected over antigen surface
Description: (§1) B) Molecular selectivity over mouse IL-36R and human IL-1R1 The mouse and chimeric anti-IL-36R antibodies were also injected over either a mouse IL-36R or a human IL-1R1 surface at a concentration of 100 nM. The binding signal to mouse IL-36R and to human IL-1R1 for these antibodies measured using the Fortebio Octet (Fortebio, Menlo Park, Calif.) is zero, which indicates these antibodies selectively bind to human IL-36R.

mouse IL-36R = target: T3, mouse IL-36R; test: as above
Description: as §1

human IL-36R on cells [3] = target: T1, human IL-36R on cells; test: flow cytometry, HEK293 cells transfected with full-length human IL-36R
Description: HEK293 cells transfected with full-length human IL-36R or NCI/ADR-RES cells were passaged for 24 hours prior to staining. Cells were removed from flasks by rinsing with 10 ml of 5 mM EDTA in PBS, and then incubated at 37° C. for 10 min with an additional 10 ml of 5 mM EDTA and 2.5 ml of Accumax to declump/disperse cells. Antibodies were then diluted to specified concentrations in PBS+2% BSA, and cells incubated for 20 min at room temperature. Excess antibody was then washed by adding 200 μl of PBS and then centrifuged. Secondary reagent was then added at 50 μl per well and cells are incubated for 15 min at room temperature and then washed as above. Cells were resuspended in 200 μl PBS and analyzed by flow cytometry.

[4] = target: T4, recombinant human IL-36R (ECD); test: SPR (ProteOn), single IL-36R surface coat concentration
Description: A) Kinetics and binding affinities of anti-IL-36R antibodies binding to recombinant human IL-36R were measured using the Proteon (Bio-Rad, Hercules, Calif.) using material generated from hybridoma following single column purification. […] Binding of the chimeric anti-IL36R IgGs is equivalent to the respective mouse leads.

human IL-36R on cells [5] = target: T1, human IL-36R on cells; test: cell-based or functional assay; remark: listed apart in the source

cynomolgus IL-36R on BaF/3 cells, sequence (A0A2K5WSK9 entry or part of it): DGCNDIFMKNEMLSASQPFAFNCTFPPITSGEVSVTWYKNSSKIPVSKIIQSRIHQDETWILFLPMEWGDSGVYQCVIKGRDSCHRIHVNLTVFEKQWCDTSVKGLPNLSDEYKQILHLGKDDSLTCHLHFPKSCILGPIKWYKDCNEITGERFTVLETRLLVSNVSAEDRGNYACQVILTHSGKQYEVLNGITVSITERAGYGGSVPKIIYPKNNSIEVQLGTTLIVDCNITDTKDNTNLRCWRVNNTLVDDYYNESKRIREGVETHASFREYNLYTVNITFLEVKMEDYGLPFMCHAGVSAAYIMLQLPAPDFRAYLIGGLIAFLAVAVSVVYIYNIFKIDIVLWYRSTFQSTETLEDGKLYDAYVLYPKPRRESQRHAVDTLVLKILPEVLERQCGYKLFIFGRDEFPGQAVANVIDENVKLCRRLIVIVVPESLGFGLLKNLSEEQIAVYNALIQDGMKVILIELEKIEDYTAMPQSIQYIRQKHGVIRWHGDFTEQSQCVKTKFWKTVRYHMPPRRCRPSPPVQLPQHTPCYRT

Row | Binder | IC90, pNFκB, NCI/ADR-RES cells, trun-IL-36g (human IL-36R on cells [1]) | IC90, pNFκB, BaF/3 cynomolgus IL-36R cells, trun-IL-36a [2] | IC90, pNFκB, BaF/3 cynomolgus IL-36R cells, trun-IL-36b [2] | IC90, pNFκB, BaF/3 cynomolgus IL-36R cells, trun-IL-36g [2] | binding result (human IL-1R1) | binding result (mouse IL-36R) | EC50 (human IL-36R on cells [3]) | Kd [4] | IC90, pNFκB, NCI/ADR-RES cells, trun-IL-36a (human IL-36R on cells [5]) | IC90, pNFκB, NCI/ADR-RES cells, trun-IL-36b (human IL-36R on cells [5]) | IC90, pNFκB, NCI/ADR-RES cells, trun-IL-36g (human IL-36R on cells [5])
1 | antibody 89A12 (antibody, V domains shown, Mouse monoclonal from hybridoma; also called 89A12B8) VH: EVQLQQSGAELVRPGASVRLSCTASGFNIKDDYIHWVRQRPKQGLEWLGRIDPANGNTKYDPRFQDKATITADTSSNTAYLHLSSLTSEDTAVYYCAKSFPDNYYSYDDAFAYWGQGTLVTVSA VL: DIQMTQSPASQSASLGESVTFSCLASQTIGTWLGWYQQKPGKSPQLLIYRATSLADGVPSRFSGSGSGTNFSFKISSLQAEDLASYYCQQLYSGPYTFGGGTKLEIR | 145 nM | > 4 µM | > 333 nM | > 333 nM | no binding (tested: 100 nM) | no binding (tested: 100 nM) | 0.609 nM | < 0.1 nM | – | – | –
2 | antibody 67E7 (antibody, V domains shown, Mouse monoclonal from hybridoma; also called 67E7E8) VH: EVQLQQSGAEFVRPGASVKFSCTASGFNIKDDYIHWVRQRPEQGLEWVGRIDPANGNTKYAPKFQDKATITADTSSNTAYLQLSSLTSEDTAVYYCAKSFPNNYYSYDDAFAYWGQGTLVTVSA VL: DIQMTQSPASQSASLGESVTFTCLASQTIGTWLGWYQQKPGKSPQLLIYRSTTLADGVPSRFSGSGSGTKFSFKISSLQAADFASYYCQQLYSAPYTFGGGTKLEIR | > 67 nM | > 4 µM | > 333 nM | > 333 nM | no binding (tested: 100 nM) | no binding (tested: 100 nM) | 0.532 nM | < 0.1 nM | – | – | –
3 | Antibody C1 (antibody, human IgG1, kappa, L234A L235A, V domains shown) VH: QVQLQESGPGLVAPSETLSLTCTVSGFSLTDYAVHWIRQFPGKGLEWIGVIWSDGSTDFNAPFKSRVTISKDTSKNQVSFKLSSVTTDDTAVYYCARKGGYSGSWFAYWGQGTLVTVSS VL: EIVMTQSPATLSVSPGVRATLSCKASQDVGTNVLWYQQKPGQAPRPLIYSASYRHSGIPARFSGSGSGTEFTLTISSLQSEDFAEYYCQQYSRYPLTFGQGTKLEIKR | – | – | – | – | – | – | – | – | 4.6 nM | 5.5 nM | 3.4 nM
4 | Antibody C3 (antibody, human IgG1, kappa, L234A L235A, V domains shown) VH: QVQLQESGPGLVAPSETLSLTCTVSGFSLTDYAVHWIRQFPGKGLEWIGVIWSDGSTDFNAPFKSRVTISKDTSKNQVSFKLSSVTTDDTAVYYCARKGGYSGSWFAYWGQGTLVTVSS VL: EIVMTQSPATLSVSPGVRATLSCKASQDVGTNVLWYQQKPGQAPRPLIYSASYRHSGIPDRFSGSGSGTEFTLTISSLQSEDFAVYYCQQYSRYPLTFGQGTKLEIKR | – | – | – | – | – | – | – | – | 9.8 nM | 5.6 nM | 5.1 nM
5 | Antibody C2 (antibody, human IgG1, kappa, L234A L235A, V domains shown) VH: QVQLQESGPGLVKPSETLSITCTVSGFSLTDYAVHWIRQPPGKGLEWIGVIWSDGSTDYNAPFKSRVTISKDNSKSQVSFKMSSVTADDTAVYYCARKGGYSGSWFAYWGQGTLVTVSS VL: EIVMTQSPATLSVSPGVRATLSCKASQDVGTNVLWYQQKPGQAPRPLIYSASYRHSGIPDRFSGSGSGTEFTLTISSLQSEDFAVYYCQQYSRYPLTFGQGTKLEIKR | – | – | – | – | – | – | – | – | 9.7 nM | 8.6 nM | 6.1 nM
6 | antibody 172C8 (antibody, V domains shown, Mouse monoclonal from hybridoma; also called 172C8B12) VH: EVQLQQSGPELVKPGASVKLSCKASGYTFTDNYMNWVRQSHGKSLEWIGRVNPSNGDTKYNQNFKGKATLTVDKSLSTAYMQLNGLTSEDSAVYYCGRTKNFYSSYSYDDAMDYWGQGTSVTVSS VL: DIQMTQSPASQSASLGESVTFTCLASQTIGTWLAWYQQRPGKSPQLLIYAATSLADGVPSRFSGSGSGTQFSFNIRSLQAEDFASYYCQQVYTTPLTFGGGTKLEIK | 3.8 nM | > 4 µM | > 333 nM | > 333 nM | no binding (tested: 100 nM) | no binding (tested: 100 nM) | – | < 0.1 nM | – | – | –
7 | antibody 76E10 (antibody, V domains shown, Mouse monoclonal from hybridoma; also called 76E10E8) VH: QVQLKESGPVLVAPSQSLSITCTVSGFSLTNYGVHWVRQPPGKGLEWLGVIWPVGSTNYNSALMSRLSIHKDNSKSQVFLRMNSLQTDDTAIYYCAKMDWDDFFDYWGQGTTLTVSS VL: DIVMTQSQKFMSATVGGRVNITCKASQNVGRAVAWYQQKPGQSPKLLTHSASNRYTGVPDRFTGSGSGTDFTLTITNMQSEDLADYFCQQYSSYPLTFGAGTKLDLK | 1.9 nM | > 4 µM | > 333 nM | > 333 nM | no binding (tested: 100 nM) | no binding (tested: 100 nM) | 0.426 nM | < 0.1 nM | – | – | –
